Columns and labels:
[1] = target: FGFR3 (Homo sapiens, UniProt P22607); assay: Affinity and Koff to FGFR3 measured by BIAcore; type: binding
[2] = target: T1, FGFR3-F384L (Homo sapiens, UniProt P22607, F384L); assay: FGF-stimulated growth of B9 cells expressing FGFR3 mutant F384L; type: cell-based
T1 construct: expressed in transfected cells; host or cells: B9 cells
Description: (§1) Non-transformed rat chondrocyte cell line expressing PGFR3 in an inducible manner (RCJ-FGFR3) has been described previously (Rauchenberger R. et al. J. Biol. Chem. 2003; 278:38194-205). Cells were maintained in α-Minimum Essential Media supplemented with 15% fetal calf serum (FCS), 2 mM L-Glutamine, 100 U/ml penicillin, 100 μg/ml streptomycin, 600 μg/ml G418 (Gibco BRL, Ontario, Canada), 2 μg/ml Tetracyclin (Sigma, Ontario, Canada), and 50 μg/ml HygromycinB (Gibco BRL). FGFR3 expression was induced by removal of tetracyclin and serum starvation. […]
(§2) Cell viability was assessed by 3-(4,5-dimethylthiazol)-2,5-diphenyl tetrazolium (MTT) or (2,3-bis(2-methoxy-4-nitro-5-sulphophenyl)-5-[(phenylamino) carbonyl]-2H-tetrazolium hydroxide (XTT) dye absorbance where indicated. Cells were seeded in 96-well plates at a density of 20,000 (FDCP-1 cells), 5,000 (B9 cells) or 25,000 cells (MM cell lines) per well in culture medium. Cells were incubated in the absence or presence of one of the following cytokines: 10 ng/ml FGF9 and 5 μg/ml heparin, 1% murine IL-6, 50 ng/ml IGF-1 or 50 ng/ml human IL-6 where indicated and increasing concentrations of PRO-001, control antibody (purified human Fab) or 100 nM PD173074. […]

[3] = target: T2, FGFR3-G394D (Homo sapiens, UniProt P22607, G382D); assay: FGF-stimulated growth of B9 cells expressing G394D-FGFR3; type: cell-based
T2 construct: expressed in transfected cells; host or cells: B9 cells
T2 sequence (P22607 23-806 G382D): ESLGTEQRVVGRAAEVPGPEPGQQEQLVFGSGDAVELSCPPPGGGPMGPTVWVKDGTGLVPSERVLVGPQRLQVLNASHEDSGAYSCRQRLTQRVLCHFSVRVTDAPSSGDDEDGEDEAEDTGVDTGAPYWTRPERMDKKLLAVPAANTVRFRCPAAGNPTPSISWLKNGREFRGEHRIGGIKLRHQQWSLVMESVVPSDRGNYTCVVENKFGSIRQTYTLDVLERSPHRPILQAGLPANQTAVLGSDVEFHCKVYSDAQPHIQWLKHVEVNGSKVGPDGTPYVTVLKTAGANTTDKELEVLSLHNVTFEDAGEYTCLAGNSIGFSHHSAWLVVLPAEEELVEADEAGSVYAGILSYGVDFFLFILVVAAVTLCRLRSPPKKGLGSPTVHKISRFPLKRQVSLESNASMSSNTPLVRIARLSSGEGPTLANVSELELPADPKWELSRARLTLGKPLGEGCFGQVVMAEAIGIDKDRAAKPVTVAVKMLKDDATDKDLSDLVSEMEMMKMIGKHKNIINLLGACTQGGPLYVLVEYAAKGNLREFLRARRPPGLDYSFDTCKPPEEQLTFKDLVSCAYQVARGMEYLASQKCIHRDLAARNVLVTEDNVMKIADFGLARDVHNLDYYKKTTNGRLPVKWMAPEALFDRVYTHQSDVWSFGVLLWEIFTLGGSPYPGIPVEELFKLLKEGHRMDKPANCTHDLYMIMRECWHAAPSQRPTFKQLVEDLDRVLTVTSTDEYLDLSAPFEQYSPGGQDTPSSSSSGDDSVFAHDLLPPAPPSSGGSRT
Description: as §1, §2

[4] = target: T3, FGFR3-Y373C (Homo sapiens, UniProt P22607, Y373C); assay: FGF-stimulated growth of B9 cells expressing Y373C-FGFR3; type: cell-based
T3 construct: expressed in transfected cells; host or cells: B9 cells
T3 sequence (P22607 23-806 Y373C): as the sequence (P22607 23-806 G382D) above, with Y351C, D360G counted along it
Description: as §1, §2

[5] = target: FGFR1 (Homo sapiens, UniProt P11362); assay: FGF-stimulated proliferation of FDCP-FGFR1 cells (XTT); type: cell-based; conditions: up to 10 fold higher concentrations than the FDCP-FGFR3 IC50
Sequence of FGFR1 (P11362 22-822, species assumed): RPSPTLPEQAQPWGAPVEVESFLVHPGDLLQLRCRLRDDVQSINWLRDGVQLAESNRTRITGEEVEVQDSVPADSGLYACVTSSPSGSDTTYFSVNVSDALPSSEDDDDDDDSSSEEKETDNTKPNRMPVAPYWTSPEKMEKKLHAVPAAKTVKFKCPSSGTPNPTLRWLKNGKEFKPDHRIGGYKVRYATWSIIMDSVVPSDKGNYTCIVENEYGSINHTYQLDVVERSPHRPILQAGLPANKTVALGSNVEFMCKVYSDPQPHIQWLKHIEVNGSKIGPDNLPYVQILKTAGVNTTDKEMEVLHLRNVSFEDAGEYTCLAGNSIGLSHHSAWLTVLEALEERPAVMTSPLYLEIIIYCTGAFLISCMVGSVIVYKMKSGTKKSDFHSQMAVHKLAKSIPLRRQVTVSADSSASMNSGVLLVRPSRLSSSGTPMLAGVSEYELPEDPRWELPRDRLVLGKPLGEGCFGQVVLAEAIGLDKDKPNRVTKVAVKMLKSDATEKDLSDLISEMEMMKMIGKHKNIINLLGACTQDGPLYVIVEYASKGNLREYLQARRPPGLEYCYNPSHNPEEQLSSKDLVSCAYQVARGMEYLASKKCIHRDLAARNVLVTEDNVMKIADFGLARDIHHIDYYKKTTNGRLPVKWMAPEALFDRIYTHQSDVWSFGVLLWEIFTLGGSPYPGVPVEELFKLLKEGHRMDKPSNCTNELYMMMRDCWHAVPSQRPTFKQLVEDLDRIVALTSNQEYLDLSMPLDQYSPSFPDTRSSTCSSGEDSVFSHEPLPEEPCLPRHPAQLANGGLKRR
Source text: (§3) FIG. 1D is a graph showing proliferation of FGFR expressing FDCP cells in the presence of increasing concentrations of PRO-001 as determined by XTT analysis. Data are the average of duplicate cultures. The X axis represents concentration of PRO-001 Fab. The Y axis represents % inhibition.
(§4) Non-transformed rat chondrocyte cell line expressing PGFR3 in an inducible manner (RCJ-FGFR3) has been described previously (Rauchenberger R. et al. J. Biol. Chem. 2003; 278:38194-205). […]
as §2

[6] = target: T4, FGFR2 (Homo sapiens, UniProt P21802); assay: FGF-stimulated proliferation of FDCP-FGFR2 cells (XTT); type: cell-based; conditions: up to 10 fold higher concentrations than the FDCP-FGFR3 IC50
T4 construct: was transfected with full length FGFR1 (FDCP-FGFR1), FGFR2 (FDCP-FGFR2), FGFR3 (FDCP-FGFR3); expressed in transfected cells; host or cells: FDCP-1 mouse myeloid progenitor cell line
T4 sequence (P21802 22-821, species assumed): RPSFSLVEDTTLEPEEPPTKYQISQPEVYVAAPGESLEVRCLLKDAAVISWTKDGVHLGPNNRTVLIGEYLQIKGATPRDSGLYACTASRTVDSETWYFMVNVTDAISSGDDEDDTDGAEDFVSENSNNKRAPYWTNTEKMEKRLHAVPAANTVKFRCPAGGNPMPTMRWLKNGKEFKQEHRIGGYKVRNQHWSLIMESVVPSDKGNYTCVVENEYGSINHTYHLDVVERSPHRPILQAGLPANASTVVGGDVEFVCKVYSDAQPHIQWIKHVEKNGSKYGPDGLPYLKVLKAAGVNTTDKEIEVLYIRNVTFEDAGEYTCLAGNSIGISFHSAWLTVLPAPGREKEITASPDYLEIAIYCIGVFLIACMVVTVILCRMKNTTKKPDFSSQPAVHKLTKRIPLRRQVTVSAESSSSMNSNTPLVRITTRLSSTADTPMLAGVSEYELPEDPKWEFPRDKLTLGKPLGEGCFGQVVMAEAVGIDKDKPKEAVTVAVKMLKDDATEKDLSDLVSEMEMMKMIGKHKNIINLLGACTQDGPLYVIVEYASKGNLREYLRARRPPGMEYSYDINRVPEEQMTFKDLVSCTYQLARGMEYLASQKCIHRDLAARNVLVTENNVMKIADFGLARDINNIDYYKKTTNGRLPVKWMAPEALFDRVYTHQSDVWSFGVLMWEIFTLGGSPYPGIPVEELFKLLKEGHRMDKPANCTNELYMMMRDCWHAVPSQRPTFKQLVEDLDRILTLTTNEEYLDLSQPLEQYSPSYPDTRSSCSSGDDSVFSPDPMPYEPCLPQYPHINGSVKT
Source text: as §3, §4, §2

[7] = test system: 8226 cells; assay: Viability of 8226 myeloma cells (MTT); type: cell-based, human; conditions: 5 μg/ml, cells lack FGFR3 expression
Source text: FIG. 2 is a graph showing the viability of human myeloma cell lines in the presence of PRO-001. Viability is reported as the ratio between the optical density (OD) in the presence of FGF±inhibitor and the OD in the absence of FGF.
as §1, with “BRL).” for “BRL). FGFR3 expression was induced by removal of tetracyclin and serum starvation.”
as §2

T1 sequence (P22607 23-806 F384L): as the sequence (P22607 23-806 G382D) above, with D360G, F362L counted along it
Sequence of FGFR3 (P22607 23-806): as the sequence (P22607 23-806 G382D) above, with D360G counted along it

B1: PRO-001: human anti-FGFR3 Fab from HuCAL library; VH-CDR3 SEQ ID NO:1, VL-CDR3 SEQ ID NO:10; VH SEQ ID NO:19, VL SEQ ID NO:28 (antibody, V domains shown)
VH: QVQLQQSGPGLVKPSQTLSLTCAISGDSVSSNSAAWNWIRQSPGRGLEWLGRTYYRSKWYNDYAVSVKSRITINPDTSKNQFSLQLNSVTPEDTAVYYCARSYYPDFDYWGQGTLVTVSS
VL: DIELTQPPSVSVAPGQTARISCSGDALGDKYASWYQQKPGQAPVLVIYDDSDRPSGIPERFSGSNSGNTATLTISGTQAEDEADYYCQSYDGPDLWVFGGGTKLTVLGQ
Q: How did the Kd [1] turn out when B1 was run?
A: 1.5 nM

Q: And the “IC50, FGF-stimulated growth of B9 cells expressing FGFR3 mutant F384L” value [2]?
A: approximately 3 μg/ml

Q: And the “IC50, FGF-stimulated growth of cells expressing G394D-FGFR3” value [3]?
A: approximately 3 μg/ml

Q: What about the “IC50, FGF-stimulated growth of cells expressing Y373C-FGFR3” value [4] of the same molecule?
A: approximately 3 μg/ml

Q: What about the “Proliferation of FDCP-1 cells expressing FGFR1” value [5] of the same molecule?
A: unaffected

Q: And the “Proliferation of FDCP-1 cells expressing FGFR2” value [6]?
A: unaffected

Q: And the “Cell growth of 8226 cells in the presence of FGF” value [7]?
A: resistant
